The record followed here is FireProtDB (doi:10.1016/0022-2836(92)90560-7).

B1: Ribonuclease, P00648 (parent)
chain: MMKMEGIALKKRLSWISVCLLVLVSAAGMLFSTAAKTETSSHKAHTEAQVINTFDGVADYLQTYHKLPDNYITKSEAQALGWVASKGNLADVAPGKSIGGDIFSNREGKLPGKSGRTWREADINYTSGFRNSDRILYSSDWLIYKTTDHYQTFTKIR

This data set covers variants of B1. The settings on record: Bacillus amyloliquefaciens, 25 °C, Urea, Fluorescence, MES/Tris 150 mM/150 mM/, NaCl 1 M, structure 1BNI, whole UniProt chain shown.

For MMKMEGIALKKRLSWISVCLLVLVSAAGMLFSTAAKTETSSHKAHTEAQVINTFDGVADYLQTYGKLPDNYITKSEAQALGWVASKGNLADVAPGKSIGGDIFSNREGKLPGKSGRTWREADINYTSGFRNSDRILYSSDWLIYKTTDHYQTFTKIR, for the setting “pH 5.8”, the “ddG of mutation (higher = less stable)” value came to 4.1 kJ/mol, the denaturant m value was 1.85 kcal/mol/M, the “denaturant midpoint (higher = more stable)” value (“denaturant midpoint” for short) was 5.12 M and the unfolding free energy stood at 41.9 kJ/mol. For the same variant, for the setting “pH 9”, the “ddG of mutation (higher = less stable)” value is -2.13 kJ/mol, the denaturant m value is 2.07 kcal/mol/M, the “denaturant midpoint” value is 5.06 M and the unfolding free energy turned out to be 41.5 kJ/mol.
For the variant MMKMEGIALKKRLSWISVCLLVLVSAAGMLFSTAAKTETSSHKAHTEAQVINTFDGVADYLQTYGKLPDNYITKSEAQALGWVASKGNLADVAPGKSIGGDIFSNREGKLPGKSGRTWREADINYTSGFRNSDRILYSSDLLIYKTTDHYQTFTKIR, where the note is “pH 9”, the denaturant m value worked out at 1.8 kcal/mol/M, the “denaturant midpoint” value stood at 4.96 M and the unfolding free energy came to 40.7 kJ/mol.
On to MMKMEGIALKKRLSWISVCLLVLVSAAGMLFSTAAKTETSSHKAHTEAQVINTFDGVADYLQTYHKLPDNYITKSEAQALGWVASKGNLADVAPGKSIGGDIFSNREGKLPGKSGRTWREADINYTSGFRNSDRILYSSDYLIYKTTDHYQTFTKIR, for which, for the setting “pH 5.8”, the “ddG of mutation (higher = less stable)” value worked out at 5.31 kJ/mol, the denaturant m value was found to be 1.98 kcal/mol/M, the “denaturant midpoint” value stood at 4.96 M and the unfolding free energy is 40.7 kJ/mol. For the same variant, for the setting “pH 9”, the “ddG of mutation (higher = less stable)” value was determined as 4.14 kJ/mol, the denaturant m value was determined as 2 kcal/mol/M, the “denaturant midpoint” value amounted to 4.29 M and the unfolding free energy turned out to be 35.2 kJ/mol.
Take MMKMEGIALKKRLSWISVCLLVLVSAAGMLFSTAAKTETSSHKAHTEAQVINTFDGVADYLQTYHKLPDNYITKSEAQALGWVASKGNLADVAPGKSIGGDIFSNREGKLPGKSGRTWREADINYTSGFRNSDRILYSSDLLIYKTTDHYQTFTKIR: under “pH 5.8”, the “ddG of mutation (higher = less stable)” value was 6.65 kJ/mol, the denaturant m value was determined as 2 kcal/mol/M, the “denaturant midpoint” value turned out to be 4.8 M and the unfolding free energy turned out to be 39.4 kJ/mol. Besides, for the setting “pH 9”, the “ddG of mutation (higher = less stable)” value stood at 2.76 kJ/mol, the denaturant m value is 1.98 kcal/mol/M, the “denaturant midpoint” value came out at 4.47 M and the unfolding free energy worked out at 36.6 kJ/mol.
With MMKMEGIALKKRLSWISVCLLVLVSAAGMLFSTAAKTETSSHKAHTEAQVINTFDGVADYLQTYHKLPDNYITKSEAQALGWVASKGNLADVAPGKSIGGDIFSNREGKLPGKSGRTWREADINYTSGFRNSDRILYSSDFLIYKTTDHYQTFTKIR, for the setting “pH 5.8”, the “ddG of mutation (higher = less stable)” value came to 4.44 kJ/mol, the denaturant m value was 1.89 kcal/mol/M, the “denaturant midpoint” value was determined as 5.07 M and the unfolding free energy was determined as 41.6 kJ/mol. Besides, where the note is “pH 9”, the “ddG of mutation (higher = less stable)” value came to 2.51 kJ/mol, the denaturant m value was determined as 2.01 kcal/mol/M, the “denaturant midpoint” value was 4.5 M and the unfolding free energy amounted to 36.9 kJ/mol.
